Assays:
Test in all cases: cell-based or functional assay
[1] = biological target: HIV-1 envelope glycoprotein (Env) of isolate 92RW020, clade A (HIV-1)
[2] = biological target: HIV-1 Env of pseudovirus MGRM-AE-005 (clade CRF01_AE) (HIV-1)
[3] = biological target: HIV-1 Env of pseudovirus MGRM-G-016 (HIV-1, clade G isolate MGRM-G-016)
[4] = biological target: HIV-1 Env of isolate 92UG046 (clade D pseudovirus) (HIV-1)
[5] = biological target: HIV-1 envelope glycoprotein (Env) of isolate MGRM-A-009, clade A (HIV-1)
[6] = biological target: HIV-1 Env of isolate MGRM-D-012 (clade D pseudovirus) (HIV-1)
[7] = biological target: HIV-1 MGRM-C-027 Env (pseudovirus, clade C) (HIV-1)
[8] = biological target: HIV-1 Env of isolate MGRM-D-019 (clade D pseudovirus) (HIV-1)
[9] = biological target: HIV-1 MGRM-A-010 Env (pseudovirus, clade A) (HIV-1)
[10] = biological target: HIV-1 94UG103 envelope glycoprotein (Env) on pseudovirus (HIV-1)
[11] = biological target: HIV-1 Env of isolate 92RW021 (clade A pseudovirus) (HIV-1)
[12] = biological target: HIV-1 Env of isolate 92UG024 (clade D), on pseudovirus (HIV-1)
[13] = biological target: HIV-1 Env of pseudovirus MGRM-G-014 (HIV-1, clade G isolate MGRM-G-014)
[14] = biological target: HIV-1 Env of isolate TRJ0.58 (Acute), clade B, on pseudovirus (HIV-1)
[15] = biological target: HIV-1 Env of isolate MGRM-C-026 (HIV-1)
[16] = biological target: HIV-1 Env of isolate CMU02 (clade AE), on pseudovirus (HIV-1)
[17] = biological target: HIV-1 Env of isolate MGRM-F1-013 (HIV-1)
[18] = biological target: HIV-1 Env of isolate 92UG046 (pseudovirus) (HIV-1)
[19] = biological target: HIV-1 Env of isolate MGRM-D-004 (pseudovirus) (HIV-1)
[20] = biological target: HIV-1 Env of isolate MGRM-D-029 (pseudovirus) (HIV-1)
[21] = biological target: HIV-1 Env of isolate 97ZA012 (HIV-1)
[22] = biological target: HIV-1 Env of isolate MGRM-C-026 (pseudovirus) (HIV-1)
[23] = biological target: HIV-1 CMU02 envelope glycoprotein (Env) on pseudovirus (HIV-1)
[24] = biological target: HIV-1 Env of isolate 93MW959 (subtype C) (HIV-1)
[25] = biological target: HIV-1 Env of isolate MG RM-D-011 (HIV-1)
[26] = biological target: HIV-1 envelope glycoprotein (Env) of isolate MGRM-C-022 (HIV-1)
[27] = biological target: HIV-1 Env of isolate MGRM-C-004 (subtype C) (HIV-1)
[28] = biological target: HIV-1 Env of isolate 92UG001 (HIV-1)
[29] = biological target: HIV-1 Env of isolate MGRM-AG-002 (subtype AG) (HIV-1)
[30] = biological target: HIV-1 Env of isolate 93WR029 (HIV-1)
[31] = biological target: HIV-1 Env of isolate JRFL (subtype B) (HIV-1)
[32] = biological target: HIV-1 Env of isolate SF162 (subtype B) (HIV-1) (UniProt P19550)
[33] = biological target: HIV-1 Env of isolate MGRM-A-001 (HIV-1)
[34] = biological target: HIV-1 Env of isolate JRCSF (subtype B) (HIV-1) (UniProt P20871)
[35] = biological target: HIV-1 Env of isolate MGRM-A-002 (HIV-1)
[36] = biological target: HIV-1 Env of isolate 92WR021 (HIV-1)
[37] = biological target: HIV-1 Env of isolate MGRM-A-007 (subtype A) (HIV-1)
[38] = biological target: HIV-1 Env of isolate MG RM-D-019 (HIV-1)
[39] = biological target: HIV-1 Env of isolate 92UG046 (HIV-1)
[40] = biological target: HIV-1 Env of isolate 92UG037 (HIV-1)
[41] = biological target: HIV-1 envelope glycoprotein (Env) of isolate MGRM-C-006 (HIV-1)
[42] = biological target: HIV-1 Env of isolate MGRM-A-013 (subtype A) (HIV-1)

Chain of 5345_I01 (PGT-137) (antibody) (VH): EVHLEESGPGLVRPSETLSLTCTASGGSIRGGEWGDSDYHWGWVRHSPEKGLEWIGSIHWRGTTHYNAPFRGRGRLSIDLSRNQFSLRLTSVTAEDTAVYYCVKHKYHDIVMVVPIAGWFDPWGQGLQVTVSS
Chain of 5345_I01 (PGT-137) (antibody) (VL): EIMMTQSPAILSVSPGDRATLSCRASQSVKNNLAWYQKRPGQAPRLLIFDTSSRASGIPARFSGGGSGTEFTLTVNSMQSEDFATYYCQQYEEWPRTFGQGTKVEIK

Row | Substance | IC50 neutralization [7] | IC50 neutralization [9] | IC50, pseudovirus neutralization [12] | neutralization IC50 [15] | IC50, pseudovirus neutralization [16] | IC50 (µg/mL), pseudovirus neutralization [17] | IC50, pseudovirus neutralization [18] | IC50, pseudovirus neutralization [19] | IC50, pseudovirus neutralization [20] | neutralization IC50 [21] | Primary Neutralization Index (B cell culture supernatant) [22] | IC50 neutralization [24] | IC50 (µg/mL), pseudovirus neutralization [25] | IC50 (µg/mL), pseudovirus neutralization [26] | IC50 neutralization [27] | Polyclonal Transfectant Neutralization Index [22] | IC50 (µg/mL), pseudovirus neutralization [28] | IC50 (µg/mL), pseudovirus neutralization [29] | IC50 [30] | IC50 neutralization [31] | other results
1 | 1496_C09 (PG9) (TCN-109) (antibody) | 2.45 µg/mL | 0.0375 µg/mL | 1.91 µg/mL |  |  |  |  |  |  |  |  |  |  |  |  |  |  |  |  |  | IC50 (µg/ml), pseudovirus neutralization [1]: 0.08 µg/mL; IC50 [2]: 0.16 µg/mL; IC50 (µg/ml), pseudovirus neutralization [3]: 0.4 µg/mL; IC50 (µg/ml), pseudovirus neutralization [4]: 0.64 µg/mL; IC50 (µg/ml), pseudovirus neutralization [5]: 0.03 µg/mL; IC50 (µg/ml), pseudovirus neutralization [6]: 9.31 µg/mL; IC50 (µg/ml), pseudovirus neutralization [8]: 0.03 µg/mL; IC50, pseudovirus neutralization [10]: 0.173 µg/mL; IC50 (µg/ml), pseudovirus neutralization [11]: 0.05 µg/mL; IC50 (µg/mL), pseudovirus neutralization [12]: 1.86 µg/mL; IC50 (µg/ml), pseudovirus neutralization [13]: 6.32 µg/mL; IC50 (µg/ml), pseudovirus neutralization [14]: 0.43 µg/mL
2 | 4838_L06 (PGT-121) (antibody) |  |  | > 10 µg/mL | 0.002 µg/mL | > 10 µg/mL | 0.083 µg/mL | > 50 µg/mL | > 50 µg/mL | > 50 µg/mL | 0.002 µg/mL |  |  |  |  |  |  |  |  |  |  | 
3 | 4858_P08 (PGT-123) (antibody) | 0.0169 µg/mL | 0.492 µg/mL | > 10 µg/mL | 0.001 µg/mL | > 10 µg/mL | 0.08 µg/mL | > 50 µg/mL | > 50 µg/mL | > 50 µg/mL | 0.002 µg/mL | 33.8 |  |  |  |  |  |  |  |  |  | neutralization IC50 [23]: > 10 µg/mL; neutralization IC80 [23]: > 10 µg/mL; neutralization IC90 [23]: > 10 µg/mL; neutralization IC95 [23]: > 10 µg/mL; neutralization IC50 [10]: 0.846 µg/mL; neutralization IC80 [10]: 3.29 µg/mL; neutralization IC90 [10]: 8.56 µg/mL; neutralization IC95 [10]: > 10 µg/mL
4 | 4877_D15 (PGT-122) (antibody) | 0.0388 µg/mL | 1.68 µg/mL | > 10 µg/mL | 0.006 µg/mL | > 10 µg/mL | 0.152 µg/mL | > 50 µg/mL | > 50 µg/mL | > 50 µg/mL | 0.004 µg/mL |  |  |  |  |  |  |  |  |  |  | 
5 | 5114_A19 (PGT-128) (antibody) |  |  |  |  |  |  |  |  |  |  | 17.1 | 0.045 µg/mL | 0.007 µg/mL | 0.042 µg/mL | 0.025 µg/mL | 32.2 | > 50 µg/mL | 4.99 µg/mL | > 50 µg/mL | 0.007 µg/mL | IC50 neutralization [32]: 0.007 µg/mL; IC50 [33]: > 50 µg/mL; IC50 neutralization [34]: 0.003 µg/mL; IC50 [35]: 0.149 µg/mL; IC50 [36]: 0.005 µg/mL; IC50 (µg/mL), pseudovirus neutralization [37]: > 50 µg/mL; IC50 (µg/mL), pseudovirus neutralization [38]: > 50 µg/mL; IC50 (µg/mL), pseudovirus neutralization [39]: > 50 µg/mL; IC50 [40]: 0.006 µg/mL; IC50 (µg/mL), pseudovirus neutralization [41]: 0.014 µg/mL; IC50 (µg/mL), pseudovirus neutralization [42]: 0.008 µg/mL
6 | 5123_A06 (PGT-125) (antibody) | > 10 µg/mL | 0.0055 µg/mL | > 10 µg/mL | 0.005 µg/mL | > 10 µg/mL | > 50 µg/mL | > 50 µg/mL | 0.371 µg/mL | > 50 µg/mL | 2.46 µg/mL | 512 |  |  |  |  | 88.3 |  |  |  |  | 
7 | 5136_H01 (PGT-131) (antibody) |  |  |  |  |  |  |  |  |  |  | 1.2 | > 50 µg/mL | 0.756 µg/mL | 0.78 µg/mL | 3.71 µg/mL |  | > 50 µg/mL | > 50 µg/mL | > 50 µg/mL | 0.454 µg/mL | IC50 neutralization [32]: 0.025 µg/mL; IC50 [33]: > 50 µg/mL; IC50 neutralization [34]: 0.029 µg/mL; IC50 [35]: > 50 µg/mL; IC50 [36]: 0.012 µg/mL; IC50 (µg/mL), pseudovirus neutralization [37]: > 50 µg/mL; IC50 (µg/mL), pseudovirus neutralization [38]: > 50 µg/mL; IC50 (µg/mL), pseudovirus neutralization [39]: > 50 µg/mL; IC50 [40]: 0.048 µg/mL; IC50 (µg/mL), pseudovirus neutralization [41]: 0.611 µg/mL; IC50 (µg/mL), pseudovirus neutralization [42]: > 50 µg/mL
8 | 5141_B17 (PGT-126) (antibody) | 1.14 µg/mL | 0.0033 µg/mL | > 10 µg/mL | 0.007 µg/mL | > 10 µg/mL | > 50 µg/mL | > 50 µg/mL | > 50 µg/mL | > 50 µg/mL | 0.042 µg/mL | 654 |  |  |  |  | 102 |  |  |  |  | IC50, pseudovirus neutralization [23]: > 10 µg/mL; IC80 (pseudovirus neutralization) [23]: > 10 µg/mL; IC90 (pseudovirus neutralization) [23]: > 10 µg/mL; IC95 (pseudovirus neutralization) [23]: > 10 µg/mL; IC50, pseudovirus neutralization [10]: 0.0091 µg/mL; IC80 (pseudovirus neutralization) [10]: 0.0316 µg/mL; IC90 (pseudovirus neutralization) [10]: 0.0655 µg/mL; IC95 (pseudovirus neutralization) [10]: 0.128 µg/mL
9 | 5145_B14 (PGT-127) (antibody) |  |  |  | 0.014 µg/mL |  | > 50 µg/mL | > 50 µg/mL | > 50 µg/mL | > 50 µg/mL | > 50 µg/mL | 86.9 |  |  |  |  | 2.62 |  |  |  |  | 
10 | 5147_N06 (PGT-130) (antibody) | 0.0052 µg/mL | 0.0054 µg/mL | > 10 µg/mL |  | > 10 µg/mL |  |  |  |  |  | 3 | 8.55 µg/mL | 0.019 µg/mL | 0.127 µg/mL | 2.76 µg/mL | 1.05 | > 50 µg/mL | > 50 µg/mL | 34.3 µg/mL | 0.046 µg/mL | IC50 neutralization [32]: 0.007 µg/mL; IC50 [33]: > 50 µg/mL; IC50 neutralization [34]: 0.01 µg/mL; IC50 [35]: 0.01 µg/mL; IC50 [36]: 0.004 µg/mL; IC50 (µg/mL), pseudovirus neutralization [37]: > 50 µg/mL; IC50 (µg/mL), pseudovirus neutralization [38]: > 50 µg/mL; IC50 (µg/mL), pseudovirus neutralization [39]: > 50 µg/mL; IC50 [40]: 0.061 µg/mL; IC50 (µg/mL), pseudovirus neutralization [41]: 0.095 µg/mL; IC50 (µg/mL), pseudovirus neutralization [42]: > 50 µg/mL
11 | 5345_I01 (PGT-137) (antibody) |  |  |  |  |  |  |  |  |  |  | 11.3 | > 50 µg/mL | 6.3 µg/mL | > 50 µg/mL | 0.026 µg/mL |  | > 50 µg/mL | > 50 µg/mL | > 50 µg/mL | > 50 µg/mL | IC50 neutralization [32]: 3.41 µg/mL; IC50 [33]: > 50 µg/mL; IC50 neutralization [34]: > 50 µg/mL; IC50 [35]: > 50 µg/mL; IC50 [36]: 3.52 µg/mL; IC50 (µg/mL), pseudovirus neutralization [37]: > 50 µg/mL; IC50 (µg/mL), pseudovirus neutralization [38]: > 50 µg/mL; IC50 (µg/mL), pseudovirus neutralization [39]: > 50 µg/mL; IC50 [40]: > 50 µg/mL; IC50 (µg/mL), pseudovirus neutralization [41]: > 50 µg/mL; IC50 (µg/mL), pseudovirus neutralization [42]: 49.2 µg/mL
12 | PGV04 (antibody) |  |  |  |  |  |  |  |  |  |  |  |  |  |  |  |  |  |  |  |  | IC50 [28]: 0.553 µg/mL; IC50 (µg/mL), pseudovirus neutralization [12]: 0.201 µg/mL
13 | VRC01 (antibody) |  |  |  |  |  |  |  |  |  |  |  |  |  |  |  |  |  |  |  |  | IC50 (µg/mL), pseudovirus neutralization [15]: 0.707 µg/mL; IC50 [25]: 0.075 µg/mL; IC50 [17]: 0.17 µg/mL; IC50 [38]: 0.119 µg/mL
